{
  "source": "paper PMC3159028",
  "origin": "cited, not measured here",
  "molecular_target": "Ndel1 58-169 (Homo sapiens) (UniProt Q9GZM8)",
  "sequence (Q9GZM8 58-169)": "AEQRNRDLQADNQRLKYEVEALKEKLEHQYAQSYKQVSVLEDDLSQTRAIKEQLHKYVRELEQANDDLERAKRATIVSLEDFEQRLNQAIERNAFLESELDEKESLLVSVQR",
  "data": [
    {"substance": "Lis1 (from UniProt P43034)", "values": [
      {"measurement": "Kd", "result": 300, "unit": "nM"}
    ]}
  ]
}
